{"source": "patent US20050276799A1", "about": "(PDL BIOPHARMA, published 2005)", "key": {"[1]": {"molecular_target": "T1, recombinant, GPI-linked human FcRn on cell line NS0 HuFcRn (memb), clone 7-3 (human, UniProt P55899 24-297; P61769 21-119)", "T1 construct": "Expressed from pDL208 on the surface of NS0 cells; also called human neonatal Fc receptor; not shown: human c-myc decapeptide flanked by linker peptides, then GPI linkage signal of human decay accelerating factor (vector p)", "assay": "competition FACS vs biotinylated human IgG on NS0 cells expressing human FcRn, FBB pH 6.0"}, "[2]": {"molecular_target": "T1, recombinant, GPI-linked human FcRn on …", "assay": "IC50 of wild-type / IC50 of this antibody, same assay"}, "[3]": {"molecular_target": "T1, recombinant, GPI-linked human FcRn on …", "assay": "IC50 of wild-type / IC50 of this antibody, same assay", "remark": "listed apart in the source"}, "[4]": {"molecular_target": "T1, recombinant, GPI-linked human FcRn on …", "assay": "competition FACS vs biotinylated human IgG on NS0 cells expressing human FcRn, FBB pH 6.0", "remark": "listed apart in the source"}}, "note": "Like-named read-outs stand apart in the source and are kept apart here.", "data": [{"binder": "HuM291-IgG2M3 wild-type (visilizumab) (antibody, Humanized anti-CD3; also called HuM291-IgG2M3 WT; Nuvion) heavy: QVQLVQSGAEVKKPGASVKVSCKASGYTFISYTMHWVRQAPGQGLEWMGYINPRSGYTHYNQKLKDKATLTADKSASTAYMELSSLRSEDTAVYYCARSAYYDYDGFAYWGQGTLVTVSSASTKGPSVFPLAPCSRSTSESTAALGCLVKDYFPEPVTVSWNSGALTSGVHTFPAVLQSSGLYSLSSVVTVPSSNFGTQTYTCNVDHKPSNTKVDKTVERKCCVECPPCPAPPAAAPSVFLFPPKPKDTLMISRTPEVTCVVVDVSHEDPEVQFNWYVDGVEVHNAKTKPREEQFNSTFRVVSVLTVVHQDWLNGKEYKCKVSNKGLPAPIEKTISKTKGQPREPQVYTLPPSREEMTKNQVSLTCLVKGFYPSDIAVEWESNGQPENNYKTTPPMLDSDGSFFLYSKLTVDKSRWQQGNVFSCSVMHEALHNHYTQKSLSLSPSK light: DIQMTQSPSSLSASVGDRVTITCSASSSVSYMNWYQQKPGKAPKRLIYDTSKLASGVPSRFSGSGSGTDFTLTISSLQPEDFATYYCQQWSSNPPTFGGGTKVEIKRTVAAPSVFIFPPSDEQLKSGTASVVCLLNNFYPREAKVQWKVDNALQSGNSQESVTEQDSKDSTYSLSSTLTLSKADYEKHKVYACEVTHQGLSSPVTKSFNRGEC", "values": [{"measurement": "IC50", "setting": "[1]", "result": 42.2, "unit": "µg/mL"}, {"measurement": "Relative Binding", "setting": "[2]", "result": 1, "unit": "ratio"}]}, {"binder": "HuM291-IgG2M3 T250Q/M428L (antibody) heavy: QVQLVQSGAEVKKPGASVKVSCKASGYTFISYTMHWVRQAPGQGLEWMGYINPRSGYTHYNQKLKDKATLTADKSASTAYMELSSLRSEDTAVYYCARSAYYDYDGFAYWGQGTLVTVSSASTKGPSVFPLAPCSRSTSESTAALGCLVKDYFPEPVTVSWNSGALTSGVHTFPAVLQSSGLYSLSSVVTVPSSNFGTQTYTCNVDHKPSNTKVDKTVERKCCVECPPCPAPPAAAPSVFLFPPKPKDQLMISRTPEVTCVVVDVSHEDPEVQFNWYVDGVEVHNAKTKPREEQFNSTFRVVSVLTVVHQDWLNGKEYKCKVSNKGLPAPIEKTISKTKGQPREPQVYTLPPSREEMTKNQVSLTCLVKGFYPSDIAVEWESNGQPENNYKTTPPMLDSDGSFFLYSKLTVDKSRWQQGNVFSCSVLHEALHNHYTQKSLSLSPSK light: DIQMTQSPSSLSASVGDRVTITCSASSSVSYMNWYQQKPGKAPKRLIYDTSKLASGVPSRFSGSGSGTDFTLTISSLQPEDFATYYCQQWSSNPPTFGGGTKVEIKRTVAAPSVFIFPPSDEQLKSGTASVVCLLNNFYPREAKVQWKVDNALQSGNSQESVTEQDSKDSTYSLSSTLTLSKADYEKHKVYACEVTHQGLSSPVTKSFNRGEC", "values": [{"measurement": "IC50", "setting": "[1]", "result": 0.994, "unit": "µg/mL"}, {"measurement": "Relative Binding", "setting": "[2]", "result": 42, "unit": "ratio"}]}, {"binder": "M200-IgG4 wild-type (volociximab) (antibody, Chimeric anti-α5β1 integrin; also called M200-IgG4 WT) heavy: not shown light: QIVLTQSPAIMSASLGERVTMTCTASSSVSSNYLHWYQQKPGSAPNLWIYSTSNLASGVPARFSGSGSGTSYSLTISSMEAEDAATYYCHQYLRSPPTFGGGTKLEIKRTVAAPSVFIFPPSDEQLKSGTASVVCLLNNFYPREAKVQWKVDNALQSGNSQESVTEQDSKDSTYSLSSTLTLSKADYEKHKVYACEVTHQGLSSPVTKSFNRGEC", "values": [{"measurement": "Relative Binding", "setting": "[3]", "result": 1, "unit": "ratio"}, {"measurement": "IC50", "setting": "[4]", "result": 34.7, "unit": "µg/mL"}]}, {"binder": "M200-IgG4 T250Q/M428L (antibody) heavy: not shown light: QIVLTQSPAIMSASLGERVTMTCTASSSVSSNYLHWYQQKPGSAPNLWIYSTSNLASGVPARFSGSGSGTSYSLTISSMEAEDAATYYCHQYLRSPPTFGGGTKLEIKRTVAAPSVFIFPPSDEQLKSGTASVVCLLNNFYPREAKVQWKVDNALQSGNSQESVTEQDSKDSTYSLSSTLTLSKADYEKHKVYACEVTHQGLSSPVTKSFNRGEC", "values": [{"measurement": "Relative Binding", "setting": "[3]", "result": 35, "unit": "ratio"}, {"measurement": "IC50", "setting": "[4]", "result": 1, "unit": "µg/mL"}]}]}
